We go through three molecules from paper PMC4806929, “Two New Native β-Glucosidases from Clavispora NRRL Y-50464 Confer Its Dual Function as Cellobiose Fermenting Ethanologenic Yeast” (PLoS ONE, 2016).

What is called Km is the substrate concentration at which the rate is half of its maximum. What is called Vmax is the rate approached at saturating substrate. The term kcat denotes the maximal rate divided by the concentration of active sites. In general, kcat/Km refers to the second-order rate constant that governs catalysis at low substrate concentration.

One series has as its target T1, BGL3 (Clavispora sp. NRRL Y-50464, UniProt A0A141S029).
T1 construct: C-terminal His tag, vector pPICZalphaB, expressed in Pichia X33; partially purified by Ni-NTA; GH3
T1 sequence (A0A141S029 1-837): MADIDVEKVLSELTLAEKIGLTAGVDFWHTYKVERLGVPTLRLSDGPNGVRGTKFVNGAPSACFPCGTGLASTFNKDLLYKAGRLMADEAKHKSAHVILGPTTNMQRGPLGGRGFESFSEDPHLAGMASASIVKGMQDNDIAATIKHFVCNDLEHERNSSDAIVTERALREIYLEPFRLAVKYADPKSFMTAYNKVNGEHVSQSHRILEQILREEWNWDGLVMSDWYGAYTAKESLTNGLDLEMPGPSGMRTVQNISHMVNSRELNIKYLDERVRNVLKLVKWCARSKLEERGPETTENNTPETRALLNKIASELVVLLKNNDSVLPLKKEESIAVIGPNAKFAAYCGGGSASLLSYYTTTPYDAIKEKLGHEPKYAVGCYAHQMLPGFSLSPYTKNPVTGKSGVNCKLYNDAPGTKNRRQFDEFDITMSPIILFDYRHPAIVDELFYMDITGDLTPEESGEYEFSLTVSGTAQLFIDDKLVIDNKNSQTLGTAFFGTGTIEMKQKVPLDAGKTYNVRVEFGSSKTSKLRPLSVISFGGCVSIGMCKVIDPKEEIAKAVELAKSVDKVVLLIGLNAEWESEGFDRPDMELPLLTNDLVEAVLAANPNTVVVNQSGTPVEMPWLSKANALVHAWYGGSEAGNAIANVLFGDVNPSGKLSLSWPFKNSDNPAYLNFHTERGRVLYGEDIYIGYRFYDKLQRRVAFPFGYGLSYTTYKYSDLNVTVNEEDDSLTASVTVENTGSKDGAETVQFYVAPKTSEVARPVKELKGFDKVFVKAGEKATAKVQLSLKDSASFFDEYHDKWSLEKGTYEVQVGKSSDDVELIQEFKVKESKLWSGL
Nature of the series: pNPG hydrolysis, absorbance at […] nm. The format is biochemical. To be noted: product inhibition; substrate pNPG; 100 mM citrate buffer, optimal pH and temperature (pH 5, 55°C); read-out: K i (mM) (against glucose).

Another series has as its target T2, BGL2 (Clavispora sp. NRRL Y-50464, UniProt A0A141S030).
T2 construct: C-terminal His tag, vector pPICZalphaA, expressed in Pichia X33; partially purified by Ni-NTA; GH3
T2 sequence (A0A141S030 1-804): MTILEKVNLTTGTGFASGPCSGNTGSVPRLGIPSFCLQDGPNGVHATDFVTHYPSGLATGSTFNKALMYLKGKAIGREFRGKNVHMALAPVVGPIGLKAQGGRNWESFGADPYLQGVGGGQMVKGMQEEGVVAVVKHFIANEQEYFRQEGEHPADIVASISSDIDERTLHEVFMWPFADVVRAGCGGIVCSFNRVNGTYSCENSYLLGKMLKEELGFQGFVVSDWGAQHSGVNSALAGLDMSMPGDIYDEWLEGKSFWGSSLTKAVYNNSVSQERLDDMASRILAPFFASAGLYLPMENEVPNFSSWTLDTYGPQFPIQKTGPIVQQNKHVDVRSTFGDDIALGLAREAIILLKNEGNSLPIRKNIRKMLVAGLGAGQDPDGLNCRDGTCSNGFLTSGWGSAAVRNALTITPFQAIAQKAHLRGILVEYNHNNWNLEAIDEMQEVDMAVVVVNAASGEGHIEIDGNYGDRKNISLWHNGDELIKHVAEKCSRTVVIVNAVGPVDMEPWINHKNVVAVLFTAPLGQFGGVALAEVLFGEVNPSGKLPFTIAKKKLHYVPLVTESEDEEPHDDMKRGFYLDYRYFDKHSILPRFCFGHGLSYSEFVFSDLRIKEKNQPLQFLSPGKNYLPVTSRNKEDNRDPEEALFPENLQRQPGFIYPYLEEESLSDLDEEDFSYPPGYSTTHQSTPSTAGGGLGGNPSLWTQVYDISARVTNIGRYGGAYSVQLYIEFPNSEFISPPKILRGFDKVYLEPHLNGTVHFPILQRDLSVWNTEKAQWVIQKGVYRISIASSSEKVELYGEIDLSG
Description: pNPG hydrolysis, absorbance at […] nm. The format is biochemical. To be noted: product inhibition; substrate pNPG; 100 mM citrate buffer, optimal pH and temperature (pH 5, 50°C); read-out: K i (mM) (against glucose).

Substrate in the series “purified protein”: O=[N+]([O-])c1ccc(O[C@@H]2O[C@H](CO)[C@@H](O)[C@H](O)[C@H]2O)cc1
Nature of the series: purified protein. The note with it: 100 mM citrate buffer.

Regarding `OC[C@H]1OC(O)[C@H](O)[C@@H](O)[C@@H]1O` (stereo partly shown) [glucose], the Ki is 38.3 ± 1.15 mM on BGL3 and 62 ± 2.49 mM on BGL2.

B1: BGL2 (Clavispora sp. NRRL Y-50464) (protein)
chain: T2 sequence (A0A141S030 1-804)
As for B1, in the series “purified protein”, the Km is 80 ± 10 µM, the Vmax turned out to be 5.27 µmol/min/mg, the kcat was 9.13 s⁻¹ and the kcat/Km was 114000 ± 1570 M⁻¹ s⁻¹.

B2: BGL3 (Clavispora sp. NRRL Y-50464) (protein)
chain: T1 sequence (A0A141S029 1-837)
As for B2, in the series “purified protein”, the Km was determined as 180 ± 20 µM, the Vmax worked out at 1.63 µmol/min/mg, the kcat came to 1.4 s⁻¹ and the kcat/Km was 7710 M⁻¹ s⁻¹.
